Here are results for three molecules from patent US12187807B2, “Antibody molecules to C5AR1 and uses thereof” (Visterra, Inc., priority 2020, dated 2025).

For assay [1] the following is noted: oral administration, human C5aR1 transgenic mice; cited from earlier work.
For the next assay, the target named is T1, C5aR1 (Homo sapiens, UniProt P21730).
T1 sequence (P21730 1-350): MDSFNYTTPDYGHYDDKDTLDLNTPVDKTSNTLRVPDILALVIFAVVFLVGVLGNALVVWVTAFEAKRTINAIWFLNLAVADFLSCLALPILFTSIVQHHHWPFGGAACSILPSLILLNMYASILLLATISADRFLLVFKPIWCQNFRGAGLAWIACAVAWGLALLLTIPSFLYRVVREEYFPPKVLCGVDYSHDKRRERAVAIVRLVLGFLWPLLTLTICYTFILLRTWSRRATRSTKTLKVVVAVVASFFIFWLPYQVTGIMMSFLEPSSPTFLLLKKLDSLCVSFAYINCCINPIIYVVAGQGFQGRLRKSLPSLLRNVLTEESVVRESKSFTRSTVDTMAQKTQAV
The conditions noted are these: cited from earlier work.

Assay [2] addresses T2, human C5aR1 transiently expressed on the surface of Expi293 cells (Homo sapiens, UniProt P21730, K279N).
T2 construct: expressed in transfected cells; host or cells: Expi293 cells, transient
T2 sequence (P21730 with tags, fused parts or gaps K279N limits assumed): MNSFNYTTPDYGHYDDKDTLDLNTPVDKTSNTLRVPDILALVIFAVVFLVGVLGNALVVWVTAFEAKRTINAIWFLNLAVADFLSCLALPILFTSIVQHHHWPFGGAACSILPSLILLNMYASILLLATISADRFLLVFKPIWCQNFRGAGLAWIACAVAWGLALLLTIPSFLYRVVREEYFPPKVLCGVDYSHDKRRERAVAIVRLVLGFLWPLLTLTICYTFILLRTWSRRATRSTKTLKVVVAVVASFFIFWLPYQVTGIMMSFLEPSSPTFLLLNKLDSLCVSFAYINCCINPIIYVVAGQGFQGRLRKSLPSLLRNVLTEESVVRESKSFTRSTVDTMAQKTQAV
Kind of assay: Cell surface binding (flow cytometry), Expi293 cells transiently expressing human C5aR1. The conditions noted are these: staining with 100 nM of antibody. As for the experimental part: (§1) Follow up screening to ensure specificity was performed by measuring cell surface binding to cells expressing, for example, human C5aR1, human C5aR2, mouse C5aR1, and control cells that were mock transfected. Briefly, cell surface binding was performed on various C5aR1 expressing cell lines (transiently expressed Expi293 cells, stable C5aR1-U937 cells, and neutrophils isolated from whole blood). Briefly, a titration of antibody diluted in flow buffer (1×PBS with 2% fetal bovine serum) was incubated with cells for 1 hour at 4° C. Cells were washed twice with flow buffer. Anti-human-APC secondary antibody was diluted 1:400 in flow buffer and incubated with cells for 30 minutes. Cells were washed twice with flow buffer and resuspended in 100 μL of flow buffer. Fluorescence was measured using the iQue Screen Plus flow cytometer.
Background: In flow cytometry, cells or beads pass a laser one at a time.

The subject of assay [3] is control cells that were mock transfected. Put plainly: Cell surface binding (flow cytometry), mock transfected Expi293 control cells. The conditions noted are these: staining with 100 nM of antibody. As for the experimental part: as §1

With `Cc1ccc(NC(=O)[C@H]2CCCN(C(=O)c3c(C)cccc3F)[C@H]2c2ccc(NC3CCCC3)cc2)cc1C(F)(F)F` [Avacopan, avacopan], the “severity of anti-MPO NCGN” value in assay [1] is “reduced the severity of anti-MPO NCGN”.

B1: C5a: complement component 5a, agonist of C5aR1 (protein, UniProt P01031 678-751, looked up)
C5a anaphylatoxin: TLQKKIEEIAAKYKHSVVKKCCYDGACVNNDETCEQRAARISLGPRCIKAFTECCVVASQLRANISHKDMQLGR
modifications: C5a anaphylatoxin
notes: complement component 5a, agonist of C5aR1
As for B1, the “on rate for C5aR1” value in the assay with C5aR1 is “about 4.8e8 M^−1min^−1”.

B2: Clone_336_v2-1 (antibody, V domains shown)
VH: QVQLKQSGPGLVQSSQSLSITCTVSGFSLISYGVHWVRQSPGKGLEWLGVIWSGGSTDYNAAFKSRLSITKDNSKSQVFFKMNSLQADDTAIYYCAKNSQLGNAMDYWGQGTTVTVSS
VL: DIVMSQSPSSLAVSAGEKVTMSCKSSQSLLSSRTRKNYLAWYQQKPGQSPKLLIYWASTRESGVPDRFTGSGSGTDFTLTISSVQAEDLALYFCNQSYDLLTFGAGTKLEIK
With B2, the “Cell surface binding, Human C5aR1, geometric mean fluorescent intensity” value in assay [2] is reported as 223,156. Besides, the “Cell surface binding, Mock transfection, geometric mean fluorescent intensity” value in assay [3] was 5,007 Clone_511v2.
